In patent publication US20030068675, “Position dependent recognition of GNN nucleotide triplets by zinc fingers” (published 2003):
Substitutions are numbered along the chain they refer to.

Columns and labels:
Assay in all cases: EMSA
Conditions in all cases: tags: MBP fusion
ZFP SBS#974 = target: T1, ZFP SBS#974 (synthetic)
T1 chain: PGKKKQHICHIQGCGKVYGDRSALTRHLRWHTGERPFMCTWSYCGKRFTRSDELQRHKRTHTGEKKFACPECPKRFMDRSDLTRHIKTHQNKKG
In short: (§1)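 Purified ZFP was titrated against labeled double-stranded target (1 nM or lower, at least 10-fold below expected Kd) carrying the natural binding site with flanks. Binding buffer was 10 mM Tris pH 7.5, 100 mM KCl, 1 mM MgCl2, 0.1 mM ZnCl2, 5 mM DTT, 10% glycerol, 0.02% BSA, with equilibration for at least 45 min. Bound and free target were separated on a 10% polyacrylamide gel.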

ZFP SBS#973 = target: T2, ZFP SBS#973 (synthetic)
T2 chain: T1 chain with D78E, S80G, D81T, T83A
In short: as §1

ZFP SBS#966 = target: T3, ZFP SBS#966 (synthetic)
T3 chain: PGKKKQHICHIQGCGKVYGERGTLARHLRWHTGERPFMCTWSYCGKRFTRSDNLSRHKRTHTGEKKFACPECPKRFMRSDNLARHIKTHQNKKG
In short: as §1

ZFP SBS#967 = target: T4, ZFP SBS#967 (synthetic)
T4 chain: T3 chain with E20D, G22S, T23S, A25T
In short: as §1

ZFP SBS#975 = target: T5, ZFP SBS#975 (synthetic)
T5 chain: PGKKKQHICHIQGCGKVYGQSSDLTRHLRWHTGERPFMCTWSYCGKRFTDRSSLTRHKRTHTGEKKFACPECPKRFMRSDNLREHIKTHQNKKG
In short: as §1

ZFP SBS#976 = ZFP SBS#976 (synthetic)
In short: as §1

ZFP SBS#999 = ZFP SBS#999 (synthetic)
In short: as §1

ZFP SBS#997 = ZFP SBS#997 (synthetic)
In short: as §1

ZFP SBS#989 = target: T6, ZFP SBS#989 (synthetic)
T6 chain: T3 chain with E20R, R21S, G22D, T23H, S55A, R78M, D80H, N81H, A83S
In short: as §1

ZFP SBS#965 = target: T7, ZFP SBS#965 (synthetic)
T7 chain: T3 chain with T23D, A25T, N53E, S55Q, N81E, L82R, A83K
In short: as §1

ZFP SBS#983 = target: T8, ZFP SBS#983 (synthetic)
T8 chain: T5 chain with Q20R, S22D, D23H, R26K, S53H, T55A, N81E
In short: as §1

ZFP SBS#982 = target: T9, ZFP SBS#982 (synthetic)
T9 chain: T5 chain with Q20R, S22D, D23H, R26T, S53H, T55A, N81E
In short: as §1

ZFP SBS#978 = target: T10, ZFP SBS#978 (synthetic)
T10 chain: T5 chain with Q20R, S22D, D23S, D50Q, R51S, S52G, S53D, N81A
In short: as §1

ZFP SBS#977 = target: T11, ZFP SBS#977 (synthetic)
T11 chain: T5 chain with Q20R, S22D, D23S, D50Q, R51S, S52G, N81A
In short: as §1

ZFP SBS#1006 = ZFP SBS#1006 (synthetic)
In short: as §1

ZFP SBS#434 = target: T12, ZFP SBS#434 (synthetic)
T12 chain: T5 chain with S22A, D23S, R51S, S52G, S53H, R78E, S79K, D80A, R83T, E84R
In short: as §1

ZFP SBS#435 = target: T13, ZFP SBS#435 (synthetic)
T13 chain: T5 chain with S22A, D23S, R51S, S52G, S53H, R78E, S79R, D80G, R83T, E84R
In short: as §1

ZFP SBS#436 = ZFP SBS#436 (synthetic)
In short: as §1

ZFP SBS#437 = ZFP SBS#437 (synthetic)
In short: as §1

ZFP SBS#971 = target: T14, ZFP SBS#971 (synthetic)
T14 chain: T5 chain with Q20D, S21R, D23S, S53H, T55A, N81A, R83A, E84R
In short: as §1

ZFP SBS#972 = target: T15, ZFP SBS#972 (synthetic)
T15 chain: T3 chain with T23D, A25T, R50D, S51R, D52S, N53H, S55A, N81A
In short: as §1

ZFP SBS#970 = target: T16, ZFP SBS#970 (synthetic)
T16 chain: T3 chain with R50D, S51R, D52S, N53H, S55A, N81A
In short: as §1

ZFP SBS#438 = ZFP SBS#438 (synthetic)
In short: as §1

ZFP SBS#368 = ZFP SBS#368 (synthetic)
In short: as §1

ZFP SBS#991 = ZFP SBS#991 (synthetic)
In short: as §1

ZFP SBS#990 = target: T17, ZFP SBS#990 (synthetic, UniProt P08047)
T17 chain: T1 chain with A23H, E53S, Q55A, D78R, R79S, S80D, D81N, R84Q
In short: as §1

ZFP SBS#1001 = ZFP SBS#1001 (synthetic)
In short: as §1

ZFP SBS#981 = target: T18, ZFP SBS#981 (synthetic, UniProt P08047)
T18 chain: T5 chain with Q20R, S22D, D50R, R51S, S52D, S53E, T55Q
In short: as §1

ZFP SBS#969 = target: T19, ZFP SBS#969 (synthetic)
T19 chain: T5 chain with S22G, D23S, S53D, R83A, E84R
In short: as §1

ZFP SBS#968 = target: T20, ZFP SBS#968 (synthetic)
T20 chain: T5 chain with S22G, D23S, R83A, E84R
In short: as §1

ZFP SBS#984 = target: T21, ZFP SBS#984 (synthetic)
T21 chain: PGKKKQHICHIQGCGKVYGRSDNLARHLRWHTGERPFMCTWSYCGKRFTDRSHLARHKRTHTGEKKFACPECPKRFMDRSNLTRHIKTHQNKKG
In short: as §1

ZFP SBS#985 = target: T22, ZFP SBS#985 (synthetic)
T22 chain: T21 chain with D78E, R79K, S80A
In short: as §1

ZFP SBS#939 = target: T23, ZFP SBS#939 (synthetic)
T23 chain: T5 chain with Q20R, S22D, D23H, R26T, S53H, T55A, N81H, R83S, E84K
In short: as §1

ZFP SBS#994 = ZFP SBS#994 (synthetic)
In short: as §1

ZFP SBS#940 = ZFP SBS#940 (synthetic)
In short: as §1

Chain of ZFP SBS#997 (synthetic) (chain, as listed by the source): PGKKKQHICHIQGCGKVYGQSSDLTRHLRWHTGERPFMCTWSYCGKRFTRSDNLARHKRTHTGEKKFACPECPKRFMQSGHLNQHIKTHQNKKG
Chain of ZFP SBS#991 (synthetic) (chain, as listed by the source): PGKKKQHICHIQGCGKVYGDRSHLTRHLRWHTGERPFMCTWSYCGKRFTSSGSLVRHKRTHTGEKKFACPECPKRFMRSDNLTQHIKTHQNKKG
Chain of ZFP SBS#976 (synthetic) (chain, as listed by the source): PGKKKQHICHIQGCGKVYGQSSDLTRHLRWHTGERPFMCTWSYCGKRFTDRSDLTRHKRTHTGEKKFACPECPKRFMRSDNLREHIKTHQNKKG
Chain of ZFP SBS#1001 (synthetic) (chain, as listed by the source): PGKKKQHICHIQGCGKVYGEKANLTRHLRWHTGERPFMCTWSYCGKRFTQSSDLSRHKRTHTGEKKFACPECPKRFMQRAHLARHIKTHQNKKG
Chain of ZFP SBS#437 (synthetic) (chain, as listed by the source): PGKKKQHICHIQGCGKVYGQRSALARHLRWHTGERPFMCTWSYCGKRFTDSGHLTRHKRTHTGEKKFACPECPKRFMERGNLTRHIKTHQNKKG
Chain of ZFP SBS#436 (synthetic) (chain, as listed by the source): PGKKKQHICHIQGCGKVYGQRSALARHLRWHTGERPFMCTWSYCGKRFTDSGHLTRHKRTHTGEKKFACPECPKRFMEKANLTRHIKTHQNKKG
Chain of ZFP SBS#940 (synthetic) (chain, as listed by the source): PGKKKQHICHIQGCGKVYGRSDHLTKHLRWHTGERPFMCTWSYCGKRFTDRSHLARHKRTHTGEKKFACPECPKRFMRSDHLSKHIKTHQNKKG
Chain of ZFP SBS#999 (synthetic) (chain, as listed by the source): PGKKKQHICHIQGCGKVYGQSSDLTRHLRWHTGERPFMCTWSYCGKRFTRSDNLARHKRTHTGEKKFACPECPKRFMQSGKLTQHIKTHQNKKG
Chain of ZFP SBS#368 (synthetic) (chain, as listed by the source): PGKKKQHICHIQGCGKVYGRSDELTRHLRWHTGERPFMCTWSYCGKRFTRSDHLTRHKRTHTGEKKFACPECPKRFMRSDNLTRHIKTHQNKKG
Chain of ZFP SBS#1006 (synthetic) (chain, as listed by the source): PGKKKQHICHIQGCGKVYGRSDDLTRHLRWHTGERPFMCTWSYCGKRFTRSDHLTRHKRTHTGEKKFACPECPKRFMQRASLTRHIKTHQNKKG

B1: GCCGCGGTC (dsDNA)
DNA 1: GCCGCGGTC
DNA 2: GACCGCGGC
ZFP SBS#974
  Kd: 0.038 nM
ZFP SBS#973
  Kd: 0.6 nM

B2: GAGGAGGCC (dsDNA)
DNA 1: GAGGAGGCC
DNA 2: GGCCTCCTC
ZFP SBS#966
  Kd: 0.028 nM
ZFP SBS#967
  Kd: 0.055 nM

B3: CAGGCCGCT (dsDNA)
DNA 1: CAGGCCGCT
DNA 2: AGCGGCCTG
ZFP SBS#975
  Kd: 1.1 nM
ZFP SBS#976
  Kd: 4.12 nM

B4: AGAGAGGCT (dsDNA)
DNA 1: AGAGAGGCT
DNA 2: AGCCTCTCT
ZFP SBS#999
  Kd: 0.6 nM
ZFP SBS#997
  Kd: 1.65 nM

B5: GGTGAGGGG (dsDNA)
DNA 1: GGTGAGGGG
DNA 2: CCCCTCACC
ZFP SBS#989
  Kd: 1.9 nM

B6: GCGGCGGCC (dsDNA)
DNA 1: GCGGCGGCC
DNA 2: GGCCGCCGC
ZFP SBS#965
  Kd: 3.1 nM

B7: CCGGGCTGG (dsDNA)
DNA 1: CCGGGCTGG
DNA 2: CCAGCCCGG
ZFP SBS#983
  Kd: 1.39 nM
ZFP SBS#982
  Kd: 0.03 nM

B8: CTGGCAGTG (dsDNA)
DNA 1: CTGGCAGTG
DNA 2: CACTGCCAG
ZFP SBS#978
  Kd: 1.58 nM
ZFP SBS#977
  Kd: 0.017 nM

B9: GTAGGGGCG (dsDNA)
DNA 1: GTAGGGGCG
DNA 2: CGCCCCTAC
ZFP SBS#1006
  Kd: 0.898 nM

B10: GACGGCGTA (dsDNA)
DNA 1: GACGGCGTA
DNA 2: TACGCCGTC
ZFP SBS#434
  Kd: 152 nM
ZFP SBS#435
  Kd: 150 nM
ZFP SBS#436
  Kd: 95 nM
ZFP SBS#437
  Kd: 118 nM

B11: GTGGGCGCC (dsDNA)
DNA 1: GTGGGCGCC
DNA 2: GGCGCCCAC
ZFP SBS#971
  Kd: 0.144 nM
ZFP SBS#972
  Kd: 1.75 nM
ZFP SBS#970
  Kd: 1.86 nM

B12: GAGGGGGCG (dsDNA)
DNA 1: GAGGGGGCG
DNA 2: CGCCCCCTC
ZFP SBS#438
  Kd: 62.5 nM
ZFP SBS#368
  Kd: 3.5 nM

B13: AAGGTGGGC (dsDNA)
DNA 1: AAGGTGGGC
DNA 2: GCCCACCTT
ZFP SBS#991
  Kd: 0.06 nM
ZFP SBS#990
  Kd: 5.35 nM

B14: GGAGCTGAC (dsDNA)
DNA 1: GGAGCTGAC
DNA 2: GTCAGCTCC
ZFP SBS#1001
  Kd: 1.8 nM

B15: CAGGCGGCG (dsDNA)
DNA 1: CAGGCGGCG
DNA 2: CGCCGCCTG
ZFP SBS#981
  Kd: 0.375 nM

B16: GAGGCCGCA (dsDNA)
DNA 1: GAGGCCGCA
DNA 2: TGCGGCCTC
ZFP SBS#969
  Kd: 0.275 nM
ZFP SBS#968
  Kd: 1.4 nM

B17: GACGGCGAG (dsDNA)
DNA 1: GACGGCGAG
DNA 2: CTCGCCGTC
ZFP SBS#984
  Kd: 1.6 nM
ZFP SBS#985
  Kd: 0.965 nM

B18: GGGGGCTGG (dsDNA)
DNA 1: GGGGGCTGG
DNA 2: CCAGCCCCC
ZFP SBS#939
  Kd: 0.352 nM
ZFP SBS#994
  Kd: 0.03 nM
ZFP SBS#940
  Kd: 1.5 nM
